Data published in publication PMC2912147 (Neuron, 2008).

Target: Flag-tagged full length HDAC1 (UniProt Q13547 1-482)
Test: co-IP

Sequence of Flag-tagged full length HDAC1 (Q13547 whole entry): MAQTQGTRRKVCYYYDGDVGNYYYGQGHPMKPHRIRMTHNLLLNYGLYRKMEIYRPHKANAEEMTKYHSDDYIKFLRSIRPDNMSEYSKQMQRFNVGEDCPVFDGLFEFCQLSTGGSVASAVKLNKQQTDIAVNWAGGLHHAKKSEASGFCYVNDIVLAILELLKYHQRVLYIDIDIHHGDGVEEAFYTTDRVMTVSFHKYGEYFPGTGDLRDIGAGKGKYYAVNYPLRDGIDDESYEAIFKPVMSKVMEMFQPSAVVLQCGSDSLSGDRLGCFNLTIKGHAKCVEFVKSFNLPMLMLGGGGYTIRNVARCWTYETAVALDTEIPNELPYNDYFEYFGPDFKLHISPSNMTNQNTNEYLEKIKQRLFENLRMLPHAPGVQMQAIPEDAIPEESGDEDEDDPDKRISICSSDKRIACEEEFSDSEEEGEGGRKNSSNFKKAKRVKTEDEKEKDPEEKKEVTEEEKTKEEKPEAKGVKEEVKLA

fold interaction against p35: > 12 fold
B1: GFP-p25 (full length p25, overexpressed in HEK293T cells) (domain or fragment)
chain: not shown
